# Test results taken from US20100331233A1, “CRYSTAL OF XPA AND ERCC1 COMPLEX AND USES THEREOF” (priority 2007, published 2010).
# Changes are numbered by the printed parent chain. In names and notes the source's numbering stands. Entries after “also recorded” stand apart in the source; their conditions may differ. Read-outs that look alike come from different tables or passages of the source.
# B1: XPA67-80 peptide (peptide)
# peptide: KIIDTGGGFILEEE
# notes: Synthetic peptide made by solid phase methods, residues 67-80 of XPA; also called XPA peptide; synthetic XPA fragment
# B2: XPA67-80^F75A mutant peptide (peptide)
# peptide: KIIDTGGGAILEEE
# notes: Synthetic peptide, alanine substitution at Phe75 of XPA67-80
# B3: ERCC192-214 (central domain of ERCC1, N-terminal His6 tag) (other)
# chain: MGSSHHHHHHSQDPLKPGAKSNSIIVSPRQRGNPVLKFVRNVPWEFGDVIPDYVLGQSTCALFLSLRYHNLHPDYIHGRLQSLGKNFALRVLLVQVDVKDPQQALKELAKMCILADCTLILAWSPEEAGRYLETYKA
# notes: 15N-labeled (and perdeuterated) in some NMR experiments
# B4: ERCC1-N110A/Y145A: mutant ERCC1 protein with N110A/Y145A double mutation (protein)
# chain: MDPGKDKEGVPQPSGPPARKKFVIPLDEDEVPPGVAKPLFRSTQSLPTVDTSAQAAPQTYAEYAISQPLEGAGATCPTGSEPLAGETPNQALKPGAKSNSIIVSPRQRGAPVLKFVRNVPWEFGDVIPDYVLGQSTCALFLSLRAHNLHPDYIHGRLQSLGKNFALRVLLVQVDVKDPQQALKELAKMCILADCTLILAWSPEEAGRYLETYKAYEQKPADLLMEKLEQDFVSRVTECLTTVKSVNKTDSQTLLTTFGSLEQLIAASREDLALCPGLGPQKARRLFDVLHEPFLKVP
# modifications: left off: small tags and cut ends
# notes: mutant ERCC1 protein with N110A/Y145A double mutation
# B5: XPA59-93 (peptide)
# peptide: MANVKAAPKIIDTGGGFILEEEEEEEQKIGKVVHQ
# notes: Expressed in E. coli from pET19bpps; The N-terminal (His)10 tag was cleaved with Prescission protease; 15N-labeled in some NMR experiments; also called XPA59-93 peptide; XPA59-93 fragment
# What was measured:
# [1] = system: NER activity in HeLa cell extracts; assay: In vitro NER assay: excision of a 1,3-intrastrand cisplatin adduct from plasmid in HeLa cell extract with XPA peptide; assay type: biochemical; settings: HeLa cell free extract, plasmid with 1,3-cisplatin intrastrand crosslink, peptide 46 nM to 92 μM
# ERCC1-XPF = biological target: T1, ERCC1-XPF (Homo sapiens, UniProt P07992); assay: Nuclease assay: incision of stem-loop DNA substrate by purified ERCC1-XPF; assay type: biochemical; settings: 92 μM peptide, 0.4 mM MnCl2
# T1 sequence (P07992 1-297): B4 chain with A110N, A145Y
# T1 sequence (Q92889 1-916 partner): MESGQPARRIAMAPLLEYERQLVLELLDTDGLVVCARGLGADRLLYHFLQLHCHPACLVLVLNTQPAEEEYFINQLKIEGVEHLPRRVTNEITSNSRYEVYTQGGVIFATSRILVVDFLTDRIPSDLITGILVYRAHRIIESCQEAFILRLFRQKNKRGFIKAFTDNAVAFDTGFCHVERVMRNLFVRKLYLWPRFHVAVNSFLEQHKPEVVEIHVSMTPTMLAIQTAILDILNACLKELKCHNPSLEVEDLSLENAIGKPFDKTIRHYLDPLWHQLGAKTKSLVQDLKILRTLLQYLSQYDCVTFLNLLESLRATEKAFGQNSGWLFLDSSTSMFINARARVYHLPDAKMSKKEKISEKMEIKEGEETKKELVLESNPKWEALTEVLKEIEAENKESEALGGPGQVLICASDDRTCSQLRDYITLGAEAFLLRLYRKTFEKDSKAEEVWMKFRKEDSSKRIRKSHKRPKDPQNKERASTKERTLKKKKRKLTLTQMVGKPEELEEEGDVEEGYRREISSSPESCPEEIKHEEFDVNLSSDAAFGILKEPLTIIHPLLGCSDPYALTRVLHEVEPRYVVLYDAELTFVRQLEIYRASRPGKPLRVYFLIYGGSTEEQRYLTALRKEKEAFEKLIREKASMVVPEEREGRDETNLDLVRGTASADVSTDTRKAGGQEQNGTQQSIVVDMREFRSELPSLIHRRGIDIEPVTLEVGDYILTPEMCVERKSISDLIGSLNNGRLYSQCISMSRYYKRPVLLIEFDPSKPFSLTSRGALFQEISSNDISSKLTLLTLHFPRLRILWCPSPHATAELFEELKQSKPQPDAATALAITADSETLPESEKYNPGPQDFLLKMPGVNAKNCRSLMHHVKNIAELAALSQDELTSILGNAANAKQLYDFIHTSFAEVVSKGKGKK
# Method: Nuclease assay. A substrate consisting of a 12 base pair stem with a 22 nucleotide loop (5′-[…](T)22[…]; SEQ ID NO:7) was 5′ end labeled using a T4 polynucleotide kinase and [γ-^32P]-ATP. […] The final reaction volume was 15 μl.
# ERCC192-214 = biological target: T2, ERCC192-214 (Homo sapiens, UniProt P07992); assay: 15N HSQC NMR chemical shift perturbation of 15N-labeled ERCC1; assay type: binding; settings: 15N HSQC
# T2 construct: an ERCC1 central domain fragment consisting of amino acids 92-214 preceded by an N-terminal hexahistidine tag; made in house; host or cells: E. coli BL21(DE3), M9 minimal media with 15N-labeled NH4Cl
# T2 sequence (P07992 92-214): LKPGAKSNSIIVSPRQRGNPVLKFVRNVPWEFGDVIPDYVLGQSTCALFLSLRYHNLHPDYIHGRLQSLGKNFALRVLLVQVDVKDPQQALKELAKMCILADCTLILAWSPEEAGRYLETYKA
# Method: FIG. 3 illustrates the binding of XPA67-80 in a shallow groove of ERCC1. (A) A comparison of the two dimensional HSQC spectra for ^15N-labeled ERCC192-214 in the presence and absence of an unlabeled XPA67-80 peptide. The ^15N HSQC spectra reveal significant chemical shift changes for some ERCC1 residues (labeled) in the absence or presence of unlabeled XPA67-80. (B) Combined average chemical shift perturbations are calculated as Δχave=[((Δχ1H)^2+(Δχ15N/5)^2)/2)]^1/2 for each backbone amide of ERCC1 and shown as a histogram.
# NMR experiments and determination of the structure of XPA-ERCC1 complex. All NMR data were acquired in the NMR Buffer described above. […] Backbone assignments of the free ERCC192-214 and ERCC1-XPA67-80 complex were performed using a standard set of triple-resonance experiments: HNCA/HN(CO)CA, HN(CA)CB/HN(COCA)CB and HNCO/HN(CA)CO.
# Identification of the ERCC1 binding site in complex with XPA. The binding site for XPA on the surface of ERCC1 (FIG. 2B) was identified using two dimensional HSQC experiments. […] The ^15N HSQC spectrum of the ERCC1-XPA complex is consistent with a slow-exchange regime, implying a dissociation equilibrium constant below 1 μM for the complex. The XPA binding site on the ERCC1 central domain was identified using the backbone assignments for […] alone and in complex with XPA (see below). […]
# [2] = biological target: XPA (endogenous, in UV20 Chinese Hamster Ovary cells); assay: cell-based or functional assay
# [3] = system: NER activity in XPF-deficient cell extracts; assay: In vitro NER assay in XPF-deficient cell extract supplemented with wild-type or mutant ERCC1-XPF; assay type: biochemical; settings: cisplatin crosslink plasmid
# Excerpt: Mutations in the XPA binding pocket of ERCC1 abolish NER in vitro. […] Mutant ERCC1 proteins were generated containing N110A or Y145A single mutations or a N110A/Y145A double mutation, and their activities compared to that of the wild-type ERCC1 protein.
# [4] = system: UV20 Chinese Hamster Ovary cells; assay: Restoration of UV resistance in ERCC1-deficient UV20 cells by lentivirally expressed ERCC1; assay type: cell-based
# Method: Mutations in the XPA binding pocket of ERCC1 abolish NER in living cells. The ERCC1-N110A/Y145A double mutant protein was tested for its ability to interact with XPA and support NER activity in living cells. The double mutant and wild-type ERCC1 proteins were introduced into ERCC1-deficient UV20 Chinese Hamster Ovary cells using a lentiviral expression system. Proper expression of the ERCC1 proteins was detected using immunofluorescent detection using an antibody against the HA tag present on the lentivirally expressed ERCC1 protein. Two main parameters were compared for the wild-type and mutant proteins. Global NER activity was assessed by measuring the ability of the wild-type and double mutant ERCC1 proteins to restore UV resistance in UV-20 cells.
# UV20 cells = assay: Recruitment of ERCC1 and XPA to local UV damage foci (irradiation through polycarbonate filters, immunofluorescence); assay type: cell-based, Chinese Hamster; settings: UV-irradiated UV20 cells, 5 μM pore filters
# Method: The interaction of ERCC1 and XPA was investigated in living cells as follows (Volker et al., 2001, Gillet and Schärer, 2006): Cells were irradiated with UV irradiation through polycarbonate filters that are only translucent to UV light through their […]. This allows for the formation of spatially defined subnuclear region UV damage that can be detected as defined foci in fixed cells by antibodies against UV lesions in DNA as well as with antibodies against NER proteins recruited to these sites during the repair process.
# [5] = biological target: B3; assay: 15N HSQC of the ERCC1-XPA complex, slow-exchange regime
# [6] = biological target: T3, ERCC196-214 (central domain of ERCC1, N-terminal His6 tag) (Homo sapiens (Human), UniProt P07992 96-214); assay: competition titration, fluorescence anisotropy; reference is DNA binding to the ERCC1 central domain (1.5 µM)
# T3 construct: not shown: N-terminal His6 tag
# T3 sequence: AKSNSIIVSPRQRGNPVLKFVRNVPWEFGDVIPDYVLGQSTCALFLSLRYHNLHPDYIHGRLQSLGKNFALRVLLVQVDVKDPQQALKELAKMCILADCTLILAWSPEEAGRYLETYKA
# [7] = biological target: B3; assay: competition with 6FAM-labeled single-stranded 40mer DNA for ERCC1, fluorescence polarization, best fit to Eq. 9 (legend of FIG. 7)
# [8] = biological target: T3, ERCC196-214 (central domain of ERCC1, …); assay: competition with 6FAM-labeled single-stranded 40mer DNA for ERCC1, fluorescence anisotropy, fit to a competitive binding model (Eq. 9)
# [9] = biological target: B3; assay: 15N HSQC of 15N-labeled ERCC1 with added mutant peptide (data not shown)
# XPA1-273 = biological target: T4, XPA1-273 (Homo sapiens (Human), UniProt P23025 1-273); assay: gel filtration (S100) of the complex; ERCC1 central domain construct (92-214 or 96-214) not specified
# T4 construct: Cloned into pET19bpps; His10 tag cleaved with Prescission protease; also called full length XPA protein
# T4 sequence (P23025 whole entry, the tested form may be a part): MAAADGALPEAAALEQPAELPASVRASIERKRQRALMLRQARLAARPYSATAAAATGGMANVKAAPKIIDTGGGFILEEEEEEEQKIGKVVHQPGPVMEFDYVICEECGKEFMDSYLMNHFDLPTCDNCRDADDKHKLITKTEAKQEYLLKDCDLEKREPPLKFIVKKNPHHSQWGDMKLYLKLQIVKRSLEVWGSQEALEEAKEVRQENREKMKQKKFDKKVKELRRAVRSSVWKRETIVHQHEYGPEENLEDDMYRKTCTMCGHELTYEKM
# XPA59-273 = biological target: T5, XPA59-273 (Homo sapiens (Human), UniProt P23025 59-273); assay: as above
# T5 construct: Cloned into pET19bpps; His10 tag cleaved with Prescission protease
# [10] = biological target: B3; assay: sedimentation equilibrium analytical ultracentrifugation
molecule,measurement,setting,value
XPA67-80^F75A: mutant XPA67-80 peptide with alanine substitution at Phe75 (KIIDTGGGAILEEE),effect on NER excision of the lesion-containing oligonucleotide,[1],did not affect NER activity; also recorded: has no effect
same,effect on intrinsic nuclease activity of ERCC1-XPF,ERCC1-XPF,do not affect
same,binding to 15N-labeled ERCC1 by chemical shift perturbation,ERCC192-214,does not bind to ERCC1
"ERCC1-N110A/Y145A double mutant protein with HA tag, lentivirally expressed in UV20 Chinese Hamster Ovary cells (from UniProt P07992 1-297)",UV resistance of UV20 cells,[2],< 50%
"wild-type ERCC1: wild-type ERCC1 protein, expressed as heterodimer with XPF in insect cells or lentivirally in UV20 cells",NER activity restored by ERCC1 (heterodimer with XPF),[3],restored NER activity
same,restoration of UV resistance,"[4]; doses of 1, 2, 4 and 10 J/m^2",fully restored UV resistance
same,recruitment of ERCC1 to sites of nuclear UV damage,UV20 cells,colocalized at sites containing 6-4 photoproducts
B1,Kd,[5],< 1000 nM
same,fold higher affinity than single stranded DNA,[6],~3 fold
same,Kd,[7],300 nM
same,Kd,[8],540 nM
B2,binding result,[9],no binding
B3,binding result,XPA1-273,binds
same,binding result,XPA59-273,binds
B4,NER activity restored by ERCC1 (heterodimer with XPF),[3],only marginal NER activity
same,restoration of UV resistance,[4],less than 50%
same,recruitment of ERCC1 to sites of nuclear UV damage,UV20 cells,not recruited to sites of active NER
B5,binding result,[10],binds
